Assay results reported in patent US12492252.

Target: human GPC3 on cells (HepG2 cells expressing full length human GPC3; GPC3-transfected HEK293T cells) (human) (UniProt P51654)
Test: cell-based or functional assay

GC33 CAR (GC33 Benchmark)
IFN-gamma cytokine release (pg/mL), E:T 1:1: 8180 pg/mL
IFN-gamma cytokine release (pg/mL), E:T 1:3: 2760 pg/mL
IFN-gamma cytokine release (pg/mL), E:T 3:1: 15000 pg/mL
Specific lysis (%) of HepG2 cells, E:T 1:1: 9.78%
Specific lysis (%) of HepG2 cells, E:T 1:3: 4.57%
Specific lysis (%) of HepG2 cells, E:T 3:1: 17.2%
